Reference: article PMC9426481, “Structure and Function of BcpE2, the Most Promiscuous GH3-Family Glucose Scavenging Beta-Glucosidase” (mBio, 2022)

Assays:
BcpE2 = biological target: T1, BcpE2 (Streptomyces scabiei, UniProt C9ZDY4); experiment: TLC hydrolysis assay with purified enzyme (complete hydrolysis); assay type: biochemical
T1 construct: gene SCAB_64101; BcpE2-His6

BglC (His6-BglC) = biological target: T2, BglC (His6-BglC) (Streptomyces scabiei, UniProt C9Z448); experiment: glucose release; substrate inhibition fit; assay type: biochemical; conditions: Ki of substrate inhibition
T2 construct: gene SCAB_57721; N-terminal His6 tag kept; plasmid pSAJ022; host E. coli BL21(DE3) Rosetta

[1] = substrate: OC[C@H]1O[C@@H](Oc2ccc(O)cc2)[C@H](O)[C@@H](O)[C@@H]1O; experiment: Hydrolysis kinetics (glucose release, Km) and TLC with purified enzyme; assay type: biochemical, Streptomyces scabiei
[2] = substrate: COc1cc(/C=C/CO)ccc1O[C@@H]1O[C@H](CO)[C@@H](O)[C@H](O)[C@H]1O; experiment: as above; assay type: biochemical, Streptomyces scabiei
[3] = substrate: OC[C@H]1O[C@@H](O[C@H]2[C@H](O)[C@@H](CO)OC(O)[C@@H]2O)[C@H](O)[C@@H](O)[C@@H]1O; experiment: as above; assay type: biochemical, Streptomyces scabiei
[4] = substrate: COc1cc(/C=C/CO)cc(OC)c1O[C@@H]1O[C@H](CO)[C@@H](O)[C@H](O)[C@H]1O; experiment: as above; assay type: biochemical, Streptomyces scabiei
[5] = substrate: OCc1ccccc1O[C@@H]1O[C@H](CO)[C@@H](O)[C@H](O)[C@H]1O; experiment: as above; assay type: biochemical, Streptomyces scabiei
purified protein [6] = substrate: OC/C=C/c1ccc(O[C@@H]2O[C@H](CO)[C@@H](O)[C@H](O)[C@H]2O)cc1; experiment: purified protein; assay type: biochemical, Streptomyces scabiei
purified protein [7] = substrate: COc1cc2ccc(=O)oc2cc1O[C@@H]1O[C@H](CO)[C@@H](O)[C@H](O)[C@H]1O; experiment: purified protein; assay type: biochemical, Streptomyces scabiei

T2 sequence (C9Z448 entry or part of it): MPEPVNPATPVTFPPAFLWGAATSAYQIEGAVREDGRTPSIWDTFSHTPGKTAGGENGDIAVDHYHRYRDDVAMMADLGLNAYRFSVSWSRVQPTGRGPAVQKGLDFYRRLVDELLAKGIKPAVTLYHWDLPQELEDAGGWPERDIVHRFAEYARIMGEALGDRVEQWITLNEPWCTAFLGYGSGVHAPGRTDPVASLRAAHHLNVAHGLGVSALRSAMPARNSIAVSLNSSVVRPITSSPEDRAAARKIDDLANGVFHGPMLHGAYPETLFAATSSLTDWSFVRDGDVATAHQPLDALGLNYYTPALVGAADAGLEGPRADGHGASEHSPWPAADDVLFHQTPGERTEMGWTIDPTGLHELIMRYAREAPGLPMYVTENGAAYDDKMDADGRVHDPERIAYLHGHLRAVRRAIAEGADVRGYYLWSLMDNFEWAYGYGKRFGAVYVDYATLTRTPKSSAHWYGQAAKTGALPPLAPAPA

How did the “TLC hydrolysis assay with purified enzyme (complete hydrolysis)” value (BcpE2) turn out when `OC[C@H]1O[C@@H](Oc2cc3c(O[C@@H]4O[C@H](CO)[C@@H](O)[C@H](O)[C@H]4O)cc(O)cc3[o+]c2-c2ccc(O)c(O)c2)[C@H](O)[C@@H](O)[C@@H]1O` [Cyanin] was run?
Its value is “Cyanin (Cyanidin-3,5-di-O-glucoside)|Antho-cyanosides|+|−|NT|NT|NT|NT”.

With `CC(C)(C#N)O[C@@H]1O[C@H](CO)[C@@H](O)[C@H](O)[C@H]1O` [Linamarin] as the molecule, how does the “TLC hydrolysis assay with purified enzyme (complete hydrolysis)” value (BcpE2) read?
Its value is “Linamarin|Cyanogenic glycosides|+|−|NT|NT|NT|NT”.

How did the Ki (BglC (His6-BglC)) turn out when `COc1cc2ccc(=O)oc2cc1O[C@@H]1O[C@H](CO)[C@@H](O)[C@H](O)[C@H]1O` [Scopolin] was run?
The Ki was “the Ki value for BcpE2 appeared to be lower, indicating a stronger inhibition compared to BglC”.

B1: BcpE2 (Streptomyces scabiei 87.22) (protein)
chain: MAATPGTRTTPADEAREAAVEKALAALDLDAKARLLSGQDMWTLPALPEIGLASLVMSDGPIGVRGVRWTADDPSVALPSPTALAATWDPGLARRAGVLLAQEARRKGVHVLLAPTVNLHRSPLGGRHFEAYSEDPYLTGEIGSGYVTGVQAGGVGTTVKHFVANDAETDRFTVNNLVSARALRELYLAPFEAIVANAHPWGIMTAYNQVNGSTMTEHRYLVNEVLRGEWGFDGFNVSDWLAARSTTGALTGGLDVAMPGPATVYGEPLAAAVRAGEVTESLLDEAVRRVLRLAARVGILEGAAPAVTELPAPVDGEALAREIARRSFVLVRNEVRDGRAALPLEQGATVALIGAAARDARVLGGGSATVFPARVVSPLDGLTAALPEGAPTYALGADPNEELAVADTGFTLRAVCRDASGTVIGTRSAPNGHIQWMGSDLPDGVTHATLHSVELTGTFTPRETGTHTFGVKGLGAYTLTVDGTTHFDGVRTTDTDDPFVSFFGAPVPLAEVELTEGTPLEVSLTHVVELAADAPITMLAFSLCHQEPQRDPDELIAEAVEAARAADTAVVVVATTERVESEGFDRKDLRLPGRQDDLVRAVAAANPATVVVVNAGSPVELPWREDVAAVLLTWFPGQEGGAALAEVLTGAHEPGGRLPTTWGSLTGAPVTQVTPTAGELVYDEGVFIGYRAWDKEDRTPTYPFGHGLGYTDWTYESLDVTGTTATVRVRNTGTREGRETVQLYLAPTTADENRPTRWLAGFATVEAAPGETAEAVVRLPRRAFEIWDETTGAWVYVTGSYEVAAGRSIADRRTRVTIEAP
notes: BcpE2-His6
How did the Km [1] turn out when B1 was run?
Its Km is 0.367 ± 0.080 mM.

What about the kcat [1] of the same molecule?
The kcat was 43.2 ± 2.5 s⁻¹.

And the kcat/Km [1]?
The kcat/Km was 117000 M⁻¹ s⁻¹.

What about the Km [2] of the same molecule?
The Km was 0.151 ± 0.043 mM.

What about the kcat [2] of the same molecule?
The kcat was 83.3 ± 5.9 s⁻¹.

What about the kcat/Km [2] of the same molecule?
Its kcat/Km is 551000 M⁻¹ s⁻¹.

And the Km [3]?
The Km was 6.557 ± 1.410 mM.

What about the kcat [3] of the same molecule?
Its kcat is 8.74 ± 1.02 s⁻¹.

And the kcat/Km [3]?
The kcat/Km was 1330 M⁻¹ s⁻¹.

What about the Km [4] of the same molecule?
The Km was 0.608 ± 0.166 mM.

And the kcat [4]?
Its kcat is 26.4 ± 3.07 s⁻¹.

What about the kcat/Km [4] of the same molecule?
The kcat/Km was 43500 M⁻¹ s⁻¹.

And the Km [5]?
Its Km is 0.142 ± 0.030 mM.

And the kcat [5]?
The kcat was 53.2 ± 2.37 s⁻¹.

What about the kcat/Km [5] of the same molecule?
The kcat/Km was 376000 M⁻¹ s⁻¹.

What about the Km (purified protein [6]) of the same molecule?
The Km was 0.236 mM.

And the kcat (purified protein [6])?
Its kcat is 77.2 s⁻¹.

And the kcat/Km (purified protein [6])?
The kcat/Km was 326000 M⁻¹ s⁻¹.

And the Km (purified protein [7])?
Its Km is 0.356 mM.

And the kcat (purified protein [7])?
Its kcat is 192 s⁻¹.

And the kcat/Km (purified protein [7])?
Its kcat/Km is 540000 M⁻¹ s⁻¹.
